What all share (format): cell-based
In one assay the test system is FZD7R-Gαi3 complexes. Briefly: FRET between FZD7R-CFP and Gαi3-YFP in HEK293 cells. To be noted: plasma membrane, within 5 min; starved cells 0.04±0.01. The protocol: (§1) Förster Resonance Energy Transfer (FRET) experiments were performed using the classical ECFP- and EYFP-tagged proteins as donor and acceptor FRET-probe pairs, respectively. Previously validated and published FZD7-CFP construct was a generous gift from Carl-Philip Heisenberg (Witzel et al, 2006). Previously validated Gαi3-YFP and Gαi1-YFP (internally tagged Gαi subunits) and CFP-Gβ1 were generous gifts from Moritz Bunemann (Bunemann et al, 2003; Gibson & Gilman, 2006). Interaction of FZD7-CFP and Gαi3-YFP proteins was studied in HEK293T cells using a Leica inverted laser scanning confocal microscope. […] Loss of FRET upon Gi activation and heterotrimer dissociation was measured between Gαi1-YFP and CFP-Gβ1 proteins co-expressed in living HeLa cells using Olympus FV1000 inverted confocal laser scanning microscope equipped with a 60× 1.49 N.A oil immersed objective designed to minimize chromatic aberration and enhance resolution for 405-605 nm imaging as described previously (Midde et al, 2015). […] FRET efficiency was calculated on a pixel by pixel basis from ratiometric images obtained in individual channels (donor, acceptor and FRET) through a RiFRET plugin in Image J software (Roszik et al, 2009). […]

For assay [1], the system named is cAMP levels in HeLa cells. Briefly: Measurement of cAMP by radioimmunoassay in HeLa cells. Here is the method: HeLa cells were transfected with DAPLE-WT or DAPLE-FA, serum starved (0.2% FBS, 16 h) and incubated with isobutylmethylxanthine (IBMX, 200 μM, 20 min) followed by Wnt5a stimulation (100 ng/ml, 20 min) and Forskolin (10 uM, 10 min). To stop the reaction, cell medium was replaced with 150 μl of ice-cold TCA 7.5% (w/v). cAMP content in TCA extracts was determined by radioimmunoassay (MA) and normalized. To the amount of protein [(determined using a dyebinding protein assay (Bio-Rad)] per sample as previously described (Ostrom et al, 2001).

Assay [2] has as its system Gi heterotrimer (Gαi1-YFP, CFP-Gβ1, Gγ2). Nature of the assay: FRET between Gαi1-YFP and CFP-Gβ1 (Gi activation) in living HeLa cells. The protocol:
as §1

These results are taken from patent publication US10358467B2, “Therapeutic targets for cancer progression” (The Regents of the University of California, priority 2015, dated 2019).

B1: Wnt5a: recombinant Wnt5a purified from CHO conditioned media (protein, UniProt P41221 62-380, looked up)
Protein Wnt-5a: IIGAQPLCSQLAGLSQGQKKLCHLYQDHMQYIGEGAKTGIKECQYQFRHRRWNCSTVDNTSVFGRVMQIGSRETAFTYAVSAAGVVNAMSRACREGELSTCGCSRAARPKDLPRDWLWGGCGDNIDYGYRFAKEFVDARERERIHAKGSYESARILMNLHNNEAGRRTVYNLADVACKCHGVSGSCSLKTCWLQLADFRKVGDALKEKYDSAAAMRLNSRGKLVQVNSRFNSPTTQDLVYIDPSPDYCVRNESTGSLGTQGRLCNKTSEGMDGCELMCCGRGYDQFKTVQTERCHCKFHWCCYVKCKKCTEIVDQFVCK
In the case of B1, in the assay on FZD7R-Gαi3 complexes, the “FRET efficiency after ligand stimulation” value is recorded as 0.25±0.06. In addition, the “suppression of cAMP levels” value in assay [1] (HeLa cells expressing DAPLE-FA) is given as “no such suppression”; in assay [1] (HeLa cells expressing DAPLE-WT, Wnt5a 100 ng/ml 20 min), roughly 50%. In addition, the “drop in FRET after Wnt5a stimulation” value in assay [2] (DAPLE-depleted HeLa cells) is listed as “No significant drop in FRET”. Also, the “FRET efficiency after Wnt5a stimulation” value in assay [2] (control HeLa cells, plasma membrane, within 5 min, 0.36±0.08 before stimulation) came to 0.17±0.06.
